# Experimental data as given in doi:10.1101/2025.11.27.690710, “Direct recruitment of RNA Polymerase II by NANOG to activated target genes” (bioRxiv, 2025).
# Target: the molecule itself
# Assay: BASIL (Bead Assay of Interacting Ligands); biotinylated oligonucleotide with a single NANOG site on streptavidin beads, incubated with rNANOG at 1mg/ml for 1 hour, washed, then with fluorescein amidite labelled oligonucleotide of the same sequence; fluorescence on the bead only if NANOG is a multimer
protein,measurement,value
"Recombinant full length NANOG, purified and refolded (natural protein, mouse, UniProt Q80Z64 1-305, looked up, NANOG, mouse, full length; Forms multimers by the BASIL assay; the size of the oligomer is not measured here; also called purified NANOG; rNANOG) MSVGLPGPHSLPSSEEASNSGNASSMPAVFHPENYSCLQGSATEMLCTEAASPRPSSEDLPLQGSPDSSTSPKQKLSSPEADKGPEEEENKVLARKQKMRTVFSQAQLCALKDRFQKQKYLSLQQMQELSSILNLSYKQVKTWFQNQRMKCKRWQKNQWLKTSNGLIQKGSAPVEYPSIHCSYPQGYLVNASGSLSMWGSQTWTNPTWSSQTWTNPTWNNQTWTNPTWSSQAWTAQSWNGQPWNAAPLHNFGEDFLQPYVQLQQNFSASDLEVNLEATRESHAHFSTPQALELFLNYSVTPPGEI",binding result,binds
